Literature values as cited in publication PMC9542338.
Read-outs that look alike come from different tables or passages of the source.

Key:
CD155 (Homo sapiens) [1] = biological target: CD155 (Homo sapiens) (UniProt P15151)
CD155 (Homo sapiens) [2] = biological target: CD155 (Homo sapiens) (UniProt P15151); remark: listed apart in the source

Chain of UniProt P15151 (P15151 21-343): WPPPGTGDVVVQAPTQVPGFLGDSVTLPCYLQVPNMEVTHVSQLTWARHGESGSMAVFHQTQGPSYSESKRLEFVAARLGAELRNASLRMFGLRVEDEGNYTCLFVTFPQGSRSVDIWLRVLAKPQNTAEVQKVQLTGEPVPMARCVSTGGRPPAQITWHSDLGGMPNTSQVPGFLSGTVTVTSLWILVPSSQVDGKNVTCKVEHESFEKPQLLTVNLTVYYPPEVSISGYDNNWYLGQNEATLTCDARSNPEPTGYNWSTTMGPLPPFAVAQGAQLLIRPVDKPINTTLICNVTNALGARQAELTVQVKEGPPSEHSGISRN

| Substance | Kd (CD155 (Homo sapiens) [1]) [nM] | Kd (CD155 (Homo sapiens) [2]) [nM] |
| --- | --- | --- |
| TIGIT (from UniProt Q495A1) | 2 | – |
| CD226 (from UniProt Q15762) | – | 115 |
